Data set [1] has as its system FIX/cFXI2/XTEN (pCW0736), FIX-DFTRVVG-XTEN_AE864.
In data set [2] the test system is FIX/cFXI1/XTEN (pCW0735), FIX-KLTRAET-XTEN_AE864.
Data set [3] concerns FIX/cFXI3/XTEN (pCW0737), FIX-/FXI/-XTEN_AE864.
In data set [4] the target is T1, soluble tissue factor (sTF), P13726.
T1 chain: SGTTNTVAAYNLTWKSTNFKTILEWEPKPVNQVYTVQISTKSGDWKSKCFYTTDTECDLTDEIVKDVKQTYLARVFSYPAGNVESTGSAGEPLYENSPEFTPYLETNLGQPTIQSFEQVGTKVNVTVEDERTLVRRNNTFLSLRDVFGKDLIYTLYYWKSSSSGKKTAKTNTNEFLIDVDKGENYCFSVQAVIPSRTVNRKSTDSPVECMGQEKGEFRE

As to “FXI protease (FXIa) of the aPTT assay plasma”, in data set [1], the Concentration by Activity (ng/ml), aPTT based factor assay stood at 9 ng/mL; the “Fraction Active (activity / ELISA)” value was 34%; the “clotting activity (aPTT based factor assay), fold enhancement by the FXI cleavage site” value is “In all three cases the presence of a FXI cleavage site enhanced the clotting activity by greater than 30-fold”. In addition, in data set [2], the Concentration by Activity (ng/ml), aPTT based factor assay was determined as 7 ng/mL; the “Fraction Active (activity / ELISA)” value was determined as 30%; the “clotting activity (aPTT based factor assay), fold enhancement by the FXI cleavage site” value is “In all three cases the presence of a FXI cleavage site enhanced the clotting activity by greater than 30-fold”. Further, in data set [3], the Concentration by Activity (ng/ml), aPTT based factor assay stood at 11 ng/mL; the “Fraction Active (activity / ELISA)” value came out at 40%; the “clotting activity (aPTT based factor assay), fold enhancement by the FXI cleavage site” value was “In all three cases the presence of a FXI cleavage site enhanced the clotting activity by greater than 30-fold”.

B1: FVIIa-AE288 (activated FVII-AE288, AC398) (protein)
chain: AVFVTQEEAHGVLHRRRRANAFLEELRPGSLERECKEEQCSFEEAREIFKDAERTKLFWISYSDGDQCASSPCQNGGSCKDQLQSYICFCLPAFEGRNCETHKDDQLICVNENGGCEQYCSDHTGTKRSCRCHEGYSLLADGVSCTPTVEYPCGKIPILEKRNASKPQGRIVGGKVCPKGECPWQVLLLVNGAQLCGGTLINTIWVVSAAHCFDKIKNWRNLIAVLGEHDLSEHDGDEQSRRVAQVIIPSTYVPGTTNHDIALLRLHQPVVLTDHVVPLCLPERTFSERTLAFVRFSLVSGWGQLLDRGATALELMVLNVPRLMTQDCLQQSRKVGDSPNITEYMFCAGYSDGSKDSCKGDSGGPHATHYRGTWYLTGIVSWGQGCATVGHFGVYTRVSQYIEWLQKLMRSEPRPGVLLRAPFPGSPGTSESATPESGPGSEPATSGSETPGTSESATPESGPGSEPATSGSETPGTSESATPESGPGTSTEPSEGSAPGSPAGSPTSTEEGTSESATPESGPGSEPATSGSETPGTSESATPESGPGSPAGSPTSTEEGSPAGSPTSTEEGTSTEPSEGSAPGTSESATPESGPGTSESATPESGPGTSESATPESGPGSEPATSGSETPGSEPATSGSETPGSPAGSPTSTEEGTSTEPSEGSAPGTSTEPSEGSAPGSEPATSGSETPGTSESATPESGPGTSTEPSEGSAPGSSS
As for B1, the “soluble tissue factor (sTF) induced clotting in FVII null plasma (Stago STA-Clot FVIIa activity assay kit)” value in data set [4] was “an activity equivalent to 112 U/ml of FVIIa activity”.

The record behind these values is patent publication US20140328819.
